Test results: patent publication US20230295638

Assays:
[1] = molecular target: constitutive Corelet construct PPID::FUSn::GFP::FTH1, where PPID=PTB (UniProt P02794)
[2] = molecular target: constitutive Corelet construct PPID::FUSn::GFP::FTH1, where PPID=PDZ (UniProt P02794)

Row | Substance | shikimate production [1] | shikimate production [2]
1 | TKL1 C-terminally tagged with PTB ligand | The case when all four enzymes are recruited through expression with PTB/PDZ tags (+) shows enhanced shikimate production compared to when certain enzymes are removed from the cluster through expression without fusion to PTB/PDZ tag (-). | –
2 | TAL1 C-terminally tagged with PDZ ligand | – | The case when all four enzymes are recruited through expression with PTB/PDZ tags (+) shows enhanced shikimate production compared to when certain enzymes are removed from the cluster through expression without fusion to PTB/PDZ tag (-).
